# Tests used:
# Test in all cases: holdup assay
# Parameters in all cases: key: below the threshold = too weak to quantify, mostly under pKd 3.1 to 4
# Conditions in all cases: plain residues with an end cap or a label only (N-terminal biotin on a linker: ado-ado)
# DLG4_3, P78352 = target: DLG4_3, P78352
# HTRA2, O43464 = target: HTRA2, O43464
# FRMPD4, Q14CM0 = target: FRMPD4, Q14CM0
# IL16_1, Q14005 = target: IL16_1, Q14005
# GRID2IP_2, A4D2P6 = target: GRID2IP_2, A4D2P6
# Inadl_10, Q8NI35 = target: Inadl_10, Q8NI35
# MAGI3_2, Q5TCQ9 = target: MAGI3_2, Q5TCQ9
# Inadl_6, Q8NI35 = target: Inadl_6, Q8NI35
# MAGI2_4, Q86UL8 = target: MAGI2_4, Q86UL8
# HTRA1, Q92743 = target: HTRA1, Q92743
# MAST1, Q9Y2H9 = target: MAST1, Q9Y2H9
# ARHGAP21, Q5T5U3 = target: T1, ARHGAP21, Q5T5U3
# T1 sequence (Q5T5U3 45-169, limits assumed, looked up): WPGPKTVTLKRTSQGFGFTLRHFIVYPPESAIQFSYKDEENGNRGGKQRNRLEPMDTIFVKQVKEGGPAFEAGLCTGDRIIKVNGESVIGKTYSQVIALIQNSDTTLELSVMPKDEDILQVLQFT
# IL16_4, Q14005 = target: IL16_4, Q14005
# LNX1_3, Q8TBB1 = target: LNX1_3, Q8TBB1
# APBA2_2, Q99767 = target: T2, APBA2_2, Q99767
# T2 sequence (Q99767 654-744, limits assumed, looked up): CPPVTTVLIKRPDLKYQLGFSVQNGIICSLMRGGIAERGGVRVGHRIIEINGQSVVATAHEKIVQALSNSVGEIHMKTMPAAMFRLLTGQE
# DLG1_2, Q12959 = target: DLG1_2, Q12959
# DLG4_1, P78352 = target: DLG4_1, P78352
# MAST2, Q6P0Q8 = target: MAST2, Q6P0Q8
# SNTB1, Q13884 = target: T3, SNTB1, Q13884
# T3 sequence (Q13884 107-205, limits assumed, looked up): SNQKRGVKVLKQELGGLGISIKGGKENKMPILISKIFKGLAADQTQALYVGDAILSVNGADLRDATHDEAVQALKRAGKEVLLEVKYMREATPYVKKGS
# PDLIM1, O00151 = target: PDLIM1, O00151
# PDZD2_2, O15018 = target: T4, PDZD2_2, O15018
# T4 sequence (O15018 329-429, limits assumed, looked up): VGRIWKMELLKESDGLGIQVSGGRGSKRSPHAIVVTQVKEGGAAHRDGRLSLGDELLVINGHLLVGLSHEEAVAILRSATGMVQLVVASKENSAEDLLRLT
# GIPC2, Q8TF65 = target: GIPC2, Q8TF65
# LNX1_2, Q8TBB1 = target: LNX1_2, Q8TBB1
# GRIP2_5, Q9C0E4 = target: GRIP2_5, Q9C0E4
# SHANK1, Q9Y566 = target: T5, SHANK1, Q9Y566
# T5 sequence (Q9Y566 658-767, limits assumed, looked up): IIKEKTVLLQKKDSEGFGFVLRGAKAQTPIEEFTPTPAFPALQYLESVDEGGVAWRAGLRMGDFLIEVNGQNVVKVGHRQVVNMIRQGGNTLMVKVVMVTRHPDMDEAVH
# Inadl_1, Q8NI35 = target: Inadl_1, Q8NI35
# MAGI2_5, Q86UL8 = target: MAGI2_5, Q86UL8
# GORASP2, Q9H8Y8 = target: GORASP2, Q9H8Y8
# DLG4_2, P78352 = target: DLG4_2, P78352
# RADIL, Q96JH8 = target: T6, RADIL, Q96JH8
# T6 sequence (Q96JH8 971-1071, limits assumed, looked up): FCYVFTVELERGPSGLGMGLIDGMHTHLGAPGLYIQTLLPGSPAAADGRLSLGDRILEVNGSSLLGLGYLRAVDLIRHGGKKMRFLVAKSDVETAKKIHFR
# GRASP, Q7Z6J2 = target: GRASP, Q7Z6J2
# LAP2, Q96RT1 = target: LAP2, Q96RT1
# DLG2_3, Q15700 = target: DLG2_3, Q15700
# DLG4_2, P78352, sequence (P78352 155-259): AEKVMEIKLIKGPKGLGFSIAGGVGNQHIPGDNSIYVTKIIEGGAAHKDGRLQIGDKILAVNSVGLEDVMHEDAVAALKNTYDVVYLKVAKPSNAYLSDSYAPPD
# IL16_4, Q14005, sequence (Q14005 1229-1329): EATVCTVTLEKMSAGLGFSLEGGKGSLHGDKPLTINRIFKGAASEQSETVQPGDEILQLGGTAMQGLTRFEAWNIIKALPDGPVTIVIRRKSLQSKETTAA
# Inadl_10, Q8NI35, sequence (Q8NI35 1673-1763): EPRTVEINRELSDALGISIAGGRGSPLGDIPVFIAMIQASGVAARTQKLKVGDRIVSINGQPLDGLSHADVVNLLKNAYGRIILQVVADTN
# GRASP, Q7Z6J2, sequence (Q7Z6J2 96-193): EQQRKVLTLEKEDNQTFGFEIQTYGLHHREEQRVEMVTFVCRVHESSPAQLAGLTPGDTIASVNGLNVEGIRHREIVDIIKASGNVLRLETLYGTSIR
# HTRA1, Q92743, sequence (Q92743 360-477): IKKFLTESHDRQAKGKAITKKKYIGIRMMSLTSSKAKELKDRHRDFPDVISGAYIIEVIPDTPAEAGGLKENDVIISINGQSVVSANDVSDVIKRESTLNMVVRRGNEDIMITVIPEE
# MAGI3_2, Q5TCQ9, sequence (Q5TCQ9 398-503): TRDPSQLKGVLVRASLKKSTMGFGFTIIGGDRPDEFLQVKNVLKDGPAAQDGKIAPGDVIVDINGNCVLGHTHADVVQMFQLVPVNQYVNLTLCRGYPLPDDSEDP
# LAP2, Q96RT1, sequence (Q96RT1 other isoform, or with tags, fused parts or gaps): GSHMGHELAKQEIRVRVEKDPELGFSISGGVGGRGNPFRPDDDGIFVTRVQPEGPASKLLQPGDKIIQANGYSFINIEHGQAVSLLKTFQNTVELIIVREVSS
# GRID2IP_2, A4D2P6, sequence (A4D2P6 272-370): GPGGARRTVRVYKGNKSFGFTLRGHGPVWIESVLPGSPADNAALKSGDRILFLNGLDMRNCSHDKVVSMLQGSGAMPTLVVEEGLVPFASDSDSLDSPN
# IL16_1, Q14005, sequence (Q14005 210-306): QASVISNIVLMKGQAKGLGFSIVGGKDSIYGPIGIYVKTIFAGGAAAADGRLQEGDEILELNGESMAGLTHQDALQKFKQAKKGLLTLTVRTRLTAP
# LNX1_3, Q8TBB1, sequence (Q8TBB1 500-596): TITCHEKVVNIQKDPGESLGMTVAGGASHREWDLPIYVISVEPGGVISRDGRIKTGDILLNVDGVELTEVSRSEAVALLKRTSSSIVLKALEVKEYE
# GRIP2_5, Q9C0E4, sequence (Q9C0E4 544-642): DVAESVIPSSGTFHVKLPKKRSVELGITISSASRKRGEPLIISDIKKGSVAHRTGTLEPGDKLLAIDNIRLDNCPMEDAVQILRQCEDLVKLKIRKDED
# FRMPD4, Q14CM0, sequence (Q14CM0 67-160): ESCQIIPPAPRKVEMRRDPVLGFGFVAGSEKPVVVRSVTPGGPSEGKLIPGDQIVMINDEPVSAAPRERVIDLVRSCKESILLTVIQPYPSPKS
# DLG4_1, P78352, sequence (P78352 62-152): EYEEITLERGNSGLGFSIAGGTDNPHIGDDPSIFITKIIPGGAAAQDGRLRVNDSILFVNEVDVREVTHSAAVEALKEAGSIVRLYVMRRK
# DLG1_2, Q12959, sequence (Q12959 314-412): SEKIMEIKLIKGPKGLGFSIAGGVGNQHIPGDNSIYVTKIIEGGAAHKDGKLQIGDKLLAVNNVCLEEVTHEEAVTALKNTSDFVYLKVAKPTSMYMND
# MAGI2_4, Q86UL8, sequence (Q86UL8 772-865): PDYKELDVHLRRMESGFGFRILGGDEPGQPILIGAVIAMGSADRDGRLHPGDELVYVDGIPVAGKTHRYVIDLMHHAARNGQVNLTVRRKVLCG
# Inadl_6, Q8NI35, sequence (Q8NI35 1058-1167): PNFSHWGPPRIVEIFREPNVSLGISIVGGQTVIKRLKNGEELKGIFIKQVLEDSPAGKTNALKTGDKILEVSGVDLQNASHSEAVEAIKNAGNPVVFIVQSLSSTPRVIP
# MAST2, Q6P0Q8, sequence (Q6P0Q8 1099-1202): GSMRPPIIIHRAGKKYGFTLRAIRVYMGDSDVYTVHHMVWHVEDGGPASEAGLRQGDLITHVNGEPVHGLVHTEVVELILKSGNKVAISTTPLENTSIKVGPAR
# MAGI2_5, Q86UL8, sequence (Q86UL8 915-1017): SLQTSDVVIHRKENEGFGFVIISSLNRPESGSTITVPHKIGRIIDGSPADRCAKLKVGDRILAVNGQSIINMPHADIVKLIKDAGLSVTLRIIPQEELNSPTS
# Inadl_1, Q8NI35, sequence (Q8NI35 113-229): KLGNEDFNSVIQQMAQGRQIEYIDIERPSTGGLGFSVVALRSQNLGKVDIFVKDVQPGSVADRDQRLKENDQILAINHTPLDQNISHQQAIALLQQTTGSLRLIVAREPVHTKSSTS
# GIPC2, Q8TF65, sequence (Q8TF65 112-203): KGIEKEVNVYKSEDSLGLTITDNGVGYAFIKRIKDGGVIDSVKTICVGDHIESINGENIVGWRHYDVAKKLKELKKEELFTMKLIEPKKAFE
# PDLIM1, O00151, sequence (O00151 1-87): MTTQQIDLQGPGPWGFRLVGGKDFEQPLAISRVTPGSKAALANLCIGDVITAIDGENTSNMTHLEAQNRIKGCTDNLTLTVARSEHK
# DLG4_3, P78352, sequence (P78352 306-403): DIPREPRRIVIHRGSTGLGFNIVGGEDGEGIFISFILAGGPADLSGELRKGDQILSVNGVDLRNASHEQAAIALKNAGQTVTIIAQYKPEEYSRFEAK
# MAST1, Q9Y2H9, sequence (Q9Y2H9 962-1065): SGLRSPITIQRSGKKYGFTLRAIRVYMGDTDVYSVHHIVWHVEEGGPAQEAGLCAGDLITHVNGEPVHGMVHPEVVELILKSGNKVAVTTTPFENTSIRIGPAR
# LNX1_2, Q8TBB1, sequence (Q8TBB1 371-470): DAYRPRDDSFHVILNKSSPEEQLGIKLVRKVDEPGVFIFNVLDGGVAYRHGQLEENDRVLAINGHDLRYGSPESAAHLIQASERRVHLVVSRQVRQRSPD
# HTRA2, O43464, sequence (O43464 355-458): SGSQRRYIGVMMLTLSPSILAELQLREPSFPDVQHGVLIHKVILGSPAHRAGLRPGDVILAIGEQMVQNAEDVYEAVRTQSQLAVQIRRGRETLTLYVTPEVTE
Binder,"pKd (DLG4_3, P78352)","pKd (HTRA2, O43464)","pKd (FRMPD4, Q14CM0)","pKd (IL16_1, Q14005)","pKd (GRID2IP_2, A4D2P6)","pKd (Inadl_10, Q8NI35)","pKd (MAGI3_2, Q5TCQ9)","pKd (Inadl_6, Q8NI35)","pKd (MAGI2_4, Q86UL8)","pKd (HTRA1, Q92743)","pKd (MAST1, Q9Y2H9)","pKd (ARHGAP21, Q5T5U3)","pKd (IL16_4, Q14005)","pKd (LNX1_3, Q8TBB1)","pKd (APBA2_2, Q99767)","pKd (DLG1_2, Q12959)","pKd (DLG4_1, P78352)","pKd (MAST2, Q6P0Q8)","pKd (SNTB1, Q13884)","pKd (PDLIM1, O00151)",further results
"EDGESWEYQI [TRPV6, Q9H1D0]",below the threshold,below the threshold,3.73,below the threshold,below the threshold,below the threshold,below the threshold,below the threshold,below the threshold,4.45,4.28,3.57,3.5,3.52,below the threshold,below the threshold,below the threshold,4.78,below the threshold,below the threshold,"pKd (PDZD2_2, O15018): 4.66; pKd (GIPC2, Q8TF65): below the threshold; pKd (LNX1_2, Q8TBB1): below the threshold; pKd (GRIP2_5, Q9C0E4): below the threshold; pKd (SHANK1, Q9Y566): below the threshold; pKd (Inadl_1, Q8NI35): 4.41; pKd (MAGI2_5, Q86UL8): below the threshold; pKd (GORASP2, Q9H8Y8): 4.22; pKd (DLG4_2, P78352): below the threshold; pKd (RADIL, Q96JH8): 3.69; pKd (GRASP, Q7Z6J2): below the threshold; pKd (LAP2, Q96RT1): below the threshold; pKd (DLG2_3, Q15700): 3.48"
"RQKEVRESKC [SCN8A, Q9UQD0]",4.6,below the threshold,below the threshold,3.7,3.69,below the threshold,4.01,below the threshold,below the threshold,below the threshold,4.34,below the threshold,3.68,below the threshold,below the threshold,3.55,below the threshold,4.82,4.99,below the threshold,"pKd (PDZD2_2, O15018): 3.94; pKd (GIPC2, Q8TF65): 4.05; pKd (LNX1_2, Q8TBB1): below the threshold; pKd (GRIP2_5, Q9C0E4): below the threshold; pKd (SHANK1, Q9Y566): below the threshold; pKd (Inadl_1, Q8NI35): below the threshold; pKd (MAGI2_5, Q86UL8): 3.61; pKd (GORASP2, Q9H8Y8): below the threshold; pKd (DLG4_2, P78352): 3.52; pKd (RADIL, Q96JH8): below the threshold; pKd (GRASP, Q7Z6J2): below the threshold; pKd (LAP2, Q96RT1): below the threshold; pKd (DLG2_3, Q15700): 4.07"
"MQHQRTHTRV [ZSCAN30, Q86W11]",4.22,below the threshold,below the threshold,below the threshold,3.77,below the threshold,5.37,below the threshold,3.49,3.99,3.54,3.92,below the threshold,3.53,below the threshold,5.12,4.59,5.21,4.15,below the threshold,"pKd (PDZD2_2, O15018): 3.95; pKd (GIPC2, Q8TF65): 3.48; pKd (LNX1_2, Q8TBB1): 3.58; pKd (GRIP2_5, Q9C0E4): below the threshold; pKd (SHANK1, Q9Y566): 4.08; pKd (Inadl_1, Q8NI35): below the threshold; pKd (MAGI2_5, Q86UL8): 3.64; pKd (GORASP2, Q9H8Y8): 4.38; pKd (DLG4_2, P78352): 4.95; pKd (RADIL, Q96JH8): 4.14; pKd (GRASP, Q7Z6J2): 4.34; pKd (LAP2, Q96RT1): 3.89; pKd (DLG2_3, Q15700): 4.67"
"NIAESLESLV [PTPRZ1, P23471]",below the threshold,below the threshold,below the threshold,4.6,below the threshold,below the threshold,4.92,4,4.45,4.41,below the threshold,below the threshold,below the threshold,below the threshold,below the threshold,5.31,4.65,4.79,4.68,below the threshold,"pKd (PDZD2_2, O15018): 5.37; pKd (GIPC2, Q8TF65): below the threshold; pKd (LNX1_2, Q8TBB1): below the threshold; pKd (GRIP2_5, Q9C0E4): below the threshold; pKd (SHANK1, Q9Y566): below the threshold; pKd (Inadl_1, Q8NI35): below the threshold; pKd (MAGI2_5, Q86UL8): 5.47; pKd (GORASP2, Q9H8Y8): below the threshold; pKd (DLG4_2, P78352): 5.09; pKd (RADIL, Q96JH8): 4.3; pKd (GRASP, Q7Z6J2): 3.74; pKd (LAP2, Q96RT1): 4.25; pKd (DLG2_3, Q15700): below the threshold"
"VKRNSKETVV [MARCHF3, Q86UD3]",4.94,below the threshold,below the threshold,3.94,below the threshold,below the threshold,5.72,below the threshold,4.21,4.35,below the threshold,below the threshold,below the threshold,below the threshold,below the threshold,6.11,5.48,4.68,5.19,below the threshold,"pKd (PDZD2_2, O15018): 4.17; pKd (GIPC2, Q8TF65): below the threshold; pKd (LNX1_2, Q8TBB1): 3.68; pKd (GRIP2_5, Q9C0E4): below the threshold; pKd (SHANK1, Q9Y566): below the threshold; pKd (Inadl_1, Q8NI35): below the threshold; pKd (MAGI2_5, Q86UL8): 3.98; pKd (GORASP2, Q9H8Y8): 4.6; pKd (DLG4_2, P78352): 6.03; pKd (RADIL, Q96JH8): 4.04; pKd (GRASP, Q7Z6J2): below the threshold; pKd (LAP2, Q96RT1): 3.54; pKd (DLG2_3, Q15700): 4.91"

# — publication PMC9482650, “Quantitative fragmentomics allow affinity mapping of interactomes” (Nature Communications, 2022)
